± gives the uncertainty stated by the source.
B1: Tumor protein p73, residues 487 to 549; numbered along this chain, O15350 (parent)
chain: YHADPSLVSFLTGLGCPNCIEYFTSQGLQSIYHLQNLTIEDLGALKIPEQYRMTIWRGLQDLK

Variants of: B1
Test: abundance fitness (aPCA) (normalised: wild type 0, dead -1); higher = more abundant; growth selection in yeast, the domain comes from the species named
Settings: Homo sapiens

Abundance fitness, by site and new letter:
D41: R -0.052 ± 0.036
L28: E -0.177 ± 0.061; Y -0.058 ± 0.051; K 0.005 ± 0.043; I -0.041 ± 0.065; G -0.289 ± 0.032; C 0.021 ± 0.044; D -0.261 ± 0.081; P -0.286 ± 0.069; S -0.079 ± 0.035; F 0.175 ± 0.077; T -0.186 ± 0.046; N -0.241 ± 0.072; H 0.083 ± 0.13; R -0.05 ± 0.027; Q -0.038 ± 0.042; V -0.008 ± 0.028; W -0.16 ± 0.039; M 0.042 ± 0.051
L37: I -0.058 ± 0.071; M 0.032 ± 0.05; Q -0.41 ± 0.13; D -0.737 ± 0.16; E -0.667 ± 0.074; Y 0.071 ± 0.11; T -0.039 ± 0.065; K 0.001 ± 0.076; G -0.536 ± 0.044; C -0.089 ± 0.082; R -0.191 ± 0.034; N -0.426 ± 0.21; H -0.063 ± 0.12; S -0.142 ± 0.044; W -0.159 ± 0.054; P -0.799 ± 0.12; F 0.02 ± 0.064
S25: D -0.074 ± 0.14; N 0.001 ± 0.1; C 0.012 ± 0.059; Y -0.266 ± 0.082; I -0.195 ± 0.054; L -0.055 ± 0.034; M -0.051 ± 0.047; E 0.129 ± 0.046; P -0.179 ± 0.052; W -0.361 ± 0.041; K 0.046 ± 0.044; G 0.029 ± 0.031; Q 0.051 ± 0.043; A 0.03 ± 0.036; F -0.197 ± 0.069
Q26: C -0.057 ± 0.052; M -0.207 ± 0.044; L -0.199 ± 0.04; K 0.032 ± 0.048; G -0.034 ± 0.035; A 0.079 ± 0.037; S -0.004 ± 0.032; H 0.035 ± 0.085; T -0.082 ± 0.06; N 0.109 ± 0.072; I -0.163 ± 0.33; Y -0.32 ± 0.098; P -0.204 ± 0.052; F -0.18 ± 0.077; R 0.001 ± 0.034; D -0.2 ± 0.086; E 0.011 ± 0.038; W -0.286 ± 0.042
Y32: G 0.104 ± 0.027; D 0.03 ± 0.071; T 0.014 ± 0.059; I 0.097 ± 0.089; L 0.105 ± 0.032; K 0.137 ± 0.1; S 0.113 ± 0.032; C 0.112 ± 0.054; A 0.012 ± 0.053; W -0.001 ± 0.043; P -0.04 ± 0.07; V 0.143 ± 0.039; R 0.071 ± 0.03; F 0.069 ± 0.061; M -0.068 ± 0.064; E 0.095 ± 0.053
N36: Q 0.022 ± 0.038; L -0.061 ± 0.034; T -0.026 ± 0.059; C -0.567 ± 0.33; G 0.013 ± 0.035; A -0.04 ± 0.04; W -0.078 ± 0.046; R 0.034 ± 0.031; M -0.007 ± 0.054; Y -0.202 ± 0.091; E 0.087 ± 0.043; F -0.198 ± 0.072; D 0.075 ± 0.039; S 0.046 ± 0.039; V -0.025 ± 0.035; I -0.02 ± 0.073; P -0.053 ± 0.078
F23: T -0.978 ± 0.13; Q -0.801 ± 0.12; I -0.277 ± 0.14; Y -0.638 ± 0.12; P -0.907 ± 0.16; V -0.618 ± 0.049; D -1.18 ± 0.19; R -1.14 ± 0.15; H -0.81 ± 0.27; W -0.966 ± 0.11; G -0.995 ± 0.075; K -0.975 ± 0.15; N -0.733 ± 0.15; A -0.971 ± 0.14; E -1.05 ± 0.15; M -0.306 ± 0.057; C -0.315 ± 0.053; S -1.03 ± 0.087; L -0.182 ± 0.037
Q35: D 0.073 ± 0.08; H 0.026 ± 0.055; W -0.245 ± 0.041; A -0.019 ± 0.042; C -0.07 ± 0.083; K 0.078 ± 0.057; P -0.184 ± 0.073; F -0.142 ± 0.085; M -0.058 ± 0.051; V 0.055 ± 0.046; T -0.084 ± 0.042; S 0.071 ± 0.043; E 0.005 ± 0.066; N 0.192 ± 0.071; Y 0.031 ± 0.057
Y22: V -0.079 ± 0.038; I -0.108 ± 0.12; E -0.107 ± 0.046; N 0.002 ± 0.12; M -0.026 ± 0.055; K -0.047 ± 0.042; H 0.031 ± 0.07; T -0.04 ± 0.041; G -0.173 ± 0.034; F 0.002 ± 0.081; L 0.009 ± 0.03; D -0.101 ± 0.063; W -0.261 ± 0.041; P -0.069 ± 0.074; R -0.042 ± 0.029; A -0.035 ± 0.036
S30: R -0.043 ± 0.025; F -0.423 ± 0.079; I -1.01 ± 0.27; M -0.094 ± 0.22; T 0.085 ± 0.073; H -0.027 ± 0.065; N 0.025 ± 0.055; Y -0.016 ± 0.051; K -0.03 ± 0.083; Q 0.115 ± 0.041; G -0.086 ± 0.03; W -0.817 ± 0.085; C -0.062 ± 0.04; V -0.521 ± 0.05; P -0.629 ± 0.094

— the Human Domainome abundance scans (Beltran et al. 2025)
